pEC50: −log10 of the molar value. Read-outs that look alike come from different tables or passages of the source. Square brackets hold non-standard residues; d marks the D form. Ends that are not written are not given here. * marks the point of attachment. Hexanoyl = CCCCCC(=O)*; Aib = CC(C)(N)C(=O)O
Experiments:
[1] = target: T1, human VPAC1 (Homo sapiens, UniProt P32241); assay: Filter binding assay, membranes from cells transiently transfected with human VPAC1, 125I-labeled VIP tracer; details: read-out: Human receptor binding (IC50; nM) VPAC1
T1 construct: expressed in transfected cells
T1 sequence (P32241 31-457): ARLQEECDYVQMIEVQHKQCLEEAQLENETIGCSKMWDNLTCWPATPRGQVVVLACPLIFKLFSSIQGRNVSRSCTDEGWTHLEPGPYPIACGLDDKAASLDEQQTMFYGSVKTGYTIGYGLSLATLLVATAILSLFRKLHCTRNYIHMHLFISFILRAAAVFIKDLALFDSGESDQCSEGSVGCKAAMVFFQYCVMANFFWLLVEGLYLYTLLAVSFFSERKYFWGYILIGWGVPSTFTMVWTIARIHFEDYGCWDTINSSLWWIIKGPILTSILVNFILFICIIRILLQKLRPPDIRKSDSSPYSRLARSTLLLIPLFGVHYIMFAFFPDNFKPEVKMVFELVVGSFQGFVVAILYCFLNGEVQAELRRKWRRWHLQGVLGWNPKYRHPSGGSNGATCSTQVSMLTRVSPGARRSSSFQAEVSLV
Procedure: (§1) For this assay, the solutions and equipment include:
(§2) Presoak solution: 0.5% Polyethyleneamine in Aqua dest.
(§3) Buffer for flushing filter plates: 25 mM HEPES pH 7.4
(§4) Blocking buffer: 25 mM HEPES pH 7.4; 0.2% protease free BSA
(§5) Assay buffer: 25 mM HEPES pH 7.4; 0.5% protease free BSA
(§6) Dilution and assay plate: PS-Microplate, U form
(§7) Filtration Plate Multiscreen FB Opaque Plate; […] Type B Glasfiber filter
(§8) In order to prepare the filter plates, the presoak solution is aspirated by vacuum filtration. The plates are flushed twice with 200 μL flush buffer. 200 μL blocking buffer is added to the filter plate. The filter plate is then incubated with 200 μL presoak solution for 1 hour at room temperature.
(§9) The assay plate is filled with […] (2.5 μg) suspended in assay buffer, 25 μL compound (agonist) in assay buffer, and 25 μL tracer (about 40000 cpm) in assay buffer. The filled plate is incubated for 1 hour with shaking.
(§10) The transfer from assay plate to filter plate is conducted. The blocking buffer is aspirated by vacuum filtration and washed two times with flush buffer. 90 μL is transferred from the assay plate to the filter plate. The 90 μL transferred from assay plate is aspirated and washed three times with 200 μL flush buffer. The plastic support is removed. It is dried for 1 hour at 60° C. 30 μL Microscint is added. The count is performed.
(§11) Values reported are single results or the mean of two or more independent runs.

[2] = target: T2, human VPAC2 (Homo sapiens, UniProt P41587); assay: Filter binding assay, membranes from stable VPAC2 cell line, 125I-labeled VIP tracer; details: read-out: Human receptor binding (IC50; nM) VPAC2
T2 construct: expressed in transfected cells
T2 sequence (P41587 24-438): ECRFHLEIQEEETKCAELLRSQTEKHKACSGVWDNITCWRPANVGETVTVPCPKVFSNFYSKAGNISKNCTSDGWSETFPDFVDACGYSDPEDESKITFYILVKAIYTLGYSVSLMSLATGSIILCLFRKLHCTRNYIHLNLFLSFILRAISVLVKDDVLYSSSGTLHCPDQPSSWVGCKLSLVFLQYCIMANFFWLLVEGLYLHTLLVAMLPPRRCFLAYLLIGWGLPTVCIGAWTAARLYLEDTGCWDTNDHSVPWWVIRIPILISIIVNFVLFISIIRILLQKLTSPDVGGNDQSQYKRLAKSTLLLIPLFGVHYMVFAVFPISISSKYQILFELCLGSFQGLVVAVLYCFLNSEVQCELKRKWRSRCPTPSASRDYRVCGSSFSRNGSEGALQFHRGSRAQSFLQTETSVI
Procedure: as §1, §2, §3, §4, §5, §6, §7, §8, §9, §10, §11

[3] = target: T2, human VPAC2; assay: Alpha screen in vitro potency: human VPAC2-R mediated cAMP generation; format: cell-based; details: single results or mean of two or more independent runs
[4] = Pharmacokinetic profiles of PEGylated peptides, plasma peptide by RIA; format: in vivo, Fisher 344 rats
Procedure: Pharmacokinetic profiles of PEGylated peptides. Healthy Fisher 344 rats (3 animals per group) are injected with 100 μg compound/kg (compound amount based on peptide content and dissolved in PBS buffer). […] PK parameters are then calculated using a model-independent method (WinNonlin Pro, Pharsight Corp., Mountain View, Calif., USA).

[5] = Rat serum stability at 37 C, remaining active peptide estimated by EC50,4C/EC50,37C in CHO-VPAC2 cAMP assay
Procedure: The rat serum is stored at 4° C. until use and is used within two weeks.
On Day 0, two 100 μL aliquots of 10 μM peptide in rat serum are prepared by adding 10 μL peptide stock to 90 μL rat serum for each aliquot. 250 kIU aprotinin/mL is added to one of these aliquots. The aliquot is stored with aprotinin at 4° C. The aliquot is stored without aprotinin at 37° C. The aliquots are incubated for […].
On Day 1, after incubation of the aliquots prepared on day 0 for 24 hours, an incubation buffer containing PBS+1.3 mM CaCl2, 1.2 mM MgCl2, 2 mM glucose, and 0.25 mM IBMX is prepared. A plate with 11 serial 5× dilutions of peptide for the 4° C. and 37° C. aliquot is prepared for each peptide studied. […] The plate(s) are washed with cells twice in incubation buffer. The plates are allowed to hold 50 μL incubation media per well for 15 minutes. 50 μL solution per well is transferred to the cells from the plate prepared with 11 serial 5× dilutions of peptide for the 4° C. and 37° C. aliquot for each peptide studied, using the maximal concentrations that are indicated by the primary screen, in duplicate. This step dilutes the peptide concentration by a factor of two. The cells are incubated at room temperature for 30 minutes. The supernatant is removed. 40 μL/well of the DiscoveRx antibody/extraction buffer is added. The cells are incubated on the shaker (300 rpm) for 1 hour. Normal procedure with the DiscoveRx kit is followed. cAMP standards are included in column 12. EC50 values are determined from the cAMP assay data.

[6] = target: T3, human PAC1 (Homo sapiens, UniProt P41586); assay: Filter binding assay, membranes from cells transiently transfected with human PAC1, 125I-labeled PACAP-27 tracer; details: read-out: Human receptor binding (IC50; nM) PAC1
T3 construct: expressed in transfected cells
T3 sequence (P41586 21-468): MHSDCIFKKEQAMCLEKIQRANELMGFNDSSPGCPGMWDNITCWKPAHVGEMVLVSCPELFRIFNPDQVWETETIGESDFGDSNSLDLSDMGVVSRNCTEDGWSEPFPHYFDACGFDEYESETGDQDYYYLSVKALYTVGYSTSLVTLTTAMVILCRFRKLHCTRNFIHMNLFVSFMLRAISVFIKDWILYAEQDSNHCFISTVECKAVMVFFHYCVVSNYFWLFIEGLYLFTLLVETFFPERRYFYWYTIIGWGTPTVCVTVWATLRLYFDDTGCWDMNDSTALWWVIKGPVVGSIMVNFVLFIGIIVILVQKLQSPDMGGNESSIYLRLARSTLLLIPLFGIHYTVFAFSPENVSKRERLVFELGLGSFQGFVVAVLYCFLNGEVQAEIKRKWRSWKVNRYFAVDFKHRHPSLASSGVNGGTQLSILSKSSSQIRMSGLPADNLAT
Procedure: as §1, §2, §3, §4, §5, §6, §7, §8, §9, §10, §11

[7] = target: T4, rat VPAC2 receptor (Rattus norvegicus, UniProt P35000); assay: Rat VPAC2 in vitro potency (cAMP generation, DiscoveRx) in transiently transfected CHO-PO cells; format: cell-based; details: CHO-PO cells transiently transfected with rat VPAC2; read-out: rVPAC2 in vitro potency (cAMP generation) EC50
T4 construct: expressed in transfected cells; host or cells: CHO-PO cells, transient
T4 sequence (P35000 23-437): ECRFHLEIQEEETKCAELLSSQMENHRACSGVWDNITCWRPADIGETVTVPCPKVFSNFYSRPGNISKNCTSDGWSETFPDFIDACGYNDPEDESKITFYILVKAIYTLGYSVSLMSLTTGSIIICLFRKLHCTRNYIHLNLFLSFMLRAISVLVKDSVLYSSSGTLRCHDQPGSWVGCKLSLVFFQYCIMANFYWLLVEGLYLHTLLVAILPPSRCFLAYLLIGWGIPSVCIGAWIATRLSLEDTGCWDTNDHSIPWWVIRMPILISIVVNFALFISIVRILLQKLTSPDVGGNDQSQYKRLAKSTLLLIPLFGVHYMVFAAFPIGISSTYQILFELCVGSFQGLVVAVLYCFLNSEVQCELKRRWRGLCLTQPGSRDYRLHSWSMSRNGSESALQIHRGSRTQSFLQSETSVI
Procedure: (§12) Rat receptor selectivity is estimated by comparing functional potency (cAMP generation) in CHO-PO cells transiently expressing rat VPAC1 or rat VPAC2 receptors. CHO-PO cells transiently expressing rat VPAC1 or VPAC2, are seeded with 10,000 cells/well three days before the assay. The cells are kept in 200 μL culture medium. […] The stimuli are present for 30 minutes. The assay buffer is then gently removed.

[8] = target: T5, rat VPAC1 receptor (Rattus norvegicus, UniProt P30083); assay: Rat VPAC1 in vitro potency (cAMP generation, DiscoveRx) in transiently transfected CHO-PO cells; format: cell-based; details: CHO-PO cells transiently transfected with rat VPAC1; read-out: rVPAC1 in vitro potency (cAMP generation) EC50
T5 construct: expressed in transfected cells; host or cells: CHO-PO cells, transient
T5 sequence (P30083 31-459): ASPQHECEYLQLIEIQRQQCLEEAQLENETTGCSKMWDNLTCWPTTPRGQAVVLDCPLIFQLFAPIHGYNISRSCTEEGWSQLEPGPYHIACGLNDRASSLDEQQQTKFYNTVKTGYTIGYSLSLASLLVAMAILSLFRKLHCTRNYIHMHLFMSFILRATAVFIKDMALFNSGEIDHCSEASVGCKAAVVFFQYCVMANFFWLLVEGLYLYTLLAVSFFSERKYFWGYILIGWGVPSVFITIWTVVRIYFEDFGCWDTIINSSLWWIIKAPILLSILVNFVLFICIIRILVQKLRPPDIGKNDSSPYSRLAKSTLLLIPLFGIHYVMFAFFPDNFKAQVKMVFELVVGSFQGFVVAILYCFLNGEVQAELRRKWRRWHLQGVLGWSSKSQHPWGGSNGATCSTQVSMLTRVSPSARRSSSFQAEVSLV
Procedure: as §12

[9] = Fisher 344 rats, 100 μg compound/kg, plasma RIA, mean N = 3

Substance | IC50 [1] | IC50 [2] | EC50 [3] | also measured
P246 (Hexanoyl-HSDAVFTDNYTRLRRQVAAK(PEG 40 kDa)RYLQSIRNGGPSSGAPPPS) [Agonist P246] | > 25000 nM | > 1000 nM | 398 nM | 
P245 (HSDAVFTDNYTRLRKQVAARRYLQSIRNGGPSSGAPPPS; not fully specified (residue 15, N-terminus)) [Agonist P245] | > 25000 nM | 921 nM | 450 nM | 
P219 (Hexanoyl-HSDAVFTDNYTRLRRQVAAK(PEG 20 kDa)RYLQSIRNGGPSSGAPPPS) [Agonist P219] | > 25000 nM | 67.9 nM | 25.5 nM | 
P217 (Hexanoyl-HSDAVFTDNYTRLRK(PEG 20 kDa)QVAAK(PEG 20 kDa)RYLQSIRNGGPSSGAPPPS) [Compound P217] |  |  |  | Cl/F ([4]; rat, in vivo): 0.12 mL/min/kg; Tmax ([4]; rat, in vivo): 20 h; T½ ([4]; rat, in vivo): 49 h; Vd/F ([4]; rat, in vivo): 0.421 L/kg
P247 (HSDAVFTDNYTRLRRQVAARKYLQSIRNGGPSSGAPPPS; not fully specified (residue 21, N-terminus)) [Compound P247] |  |  |  | Estimated 72 h stability (%) [5]: 16.7%
C6-HSDAVFTDNYTRLRAibQVAAKAibYLQSIKNKRYGGPSSGAPPPC(PEG40K)-NH2 (Hexanoyl-HSDAVFTDNYTRLR[Aib]QVAAK[Aib]YLQSIKNKRYGGPSSGAPPPC(PEG 40 kDa)-NH2) [Agonist P286] | > 3000 nM | 0.46 nM | 6.65 nM | Estimated 72 h stability (%) ([5]; after 72 h in rat serum at 37 C, values >100% may represent release of intact peptide from the PEG conjugate): 60.5%; IC50 [6]: > 25000 nM
C6-HSDAVFTDNYThRLRAibQVAAAibKYLQSIhRNhRhRYGGPSSGAPPPC(PEG40K)-NH2 (HSDAVFTDNYTXLRXQVAAXKYLQSIXNXXYGGPSSGAPPPC; non-natural residues) [Agonist P340] | > 3000 nM | 4.76 nM | 7.74 nM | pEC50 [7]: 8.40; IC50 [6]: > 25000 nM; AUC0-last [4, 9]: 515 ng·h/mL; Cmax [4, 9]: 44 ng/mL; Tmax [4, 9]: 6 h; pEC50 [8]: 6.93
P219 (Hexanoyl-HSDAVFTDNYTRLRRQVAAK(PEG 20 kDa)RYLQSIRNGGPSSGAPPPS) [Compound P219] |  |  |  | Estimated 72 h stability (%) [5]: 45.6%
P300 (Hexanoyl-HSDAVFTDNYTRLR[Aib]QVAA[Aib]KYLQSIKNKRYGGPSSGAPPPC(PEG 40 kDa)-NH2) [Agonist P300] | > 3000 nM | 1.76 nM | 6.62 nM | pEC50 [7]: 8.24; IC50 [6]: > 25000 nM
P300 (Hexanoyl-HSDAVFTDNYTRLR[Aib]QVAA[Aib]KYLQSIKNKRYGGPSSGAPPPC(PEG 40 kDa)-NH2) [Compound P300] |  |  |  | Cl/F ([4]; rat, in vivo): 1.2 mL/min/kg; Tmax ([4]; rat, in vivo): 10 h; T½ ([4]; rat, in vivo): 15 h; Vd/F ([4]; rat, in vivo): 1.557 L/kg
P247 (HSDAVFTDNYTRLRRQVAARKYLQSIRNGGPSSGAPPPS; not fully specified (residue 21, N-terminus)) [Agonist P247] | > 25000 nM | 353 nM | 133 nM | 
P217 (Hexanoyl-HSDAVFTDNYTRLRK(PEG 20 kDa)QVAAK(PEG 20 kDa)RYLQSIRNGGPSSGAPPPS) [Agonist P217] |  |  | > 3000 nM | 
